What was measured:
[1] = molecular target: T1, Recombinant human PD-L1-His tag (ACROBiosystems, #PD1-H5229) (human, UniProt Q9NZQ7 19-238); assay: Octet RED96e; PD-L1-His loaded at 10 µg/ml on HIS1K sensor; sample 55,6 nM
T1 construct: Bought protein; also called sPD-L1; human PD-L1-His tag protein; not shown: His tag
Method: (§1) FIG. 3a is a graph of Octet binding studies on sPD-L1. Recombinant human PD-L1-His tag (ACROBiosystems, #PD1-H5229) was loaded to His-sensor (HIS1K (Anti-Penta-His)) at 10 μg/ml and the binding of each construct was evaluated by Octet RED96e.
(§2) FIG. 3c is a graph depicting the KD values of anti-CD28/sPD-1 constructs on human PD-L1-His tag protein by Octet RED96e. The equilibrium dissociation constant (KD) is calculated as the ratio koff/kₒₙ (with koff:dissociation rates, and kₒₙ:association rates).
(§3) Anti-CD28/sPD-1 antibody fusion constructs were assessed for their ability to bind PD-1 ligands, PD-L1 and PD-L2 by Octet RED96e. Recombinant human PD-L1-His tag (ACROBiosystems, #PD1-H5229) or recombinant human PD-L2-His tag (ACROBiosystems, #PD2-H5220) were loaded to His-sensor (HIS1 K (Anti-Penta-His)) at 10 μg/ml. […] FIG. 3c is a summary of affinity (measured as Kd, M) for each construct on human PD-L1. […] FIG. 4c is a summary of affinity (measured as Kd, M) for each construct on human PD-L2.

[2] = molecular target: T1, Recombinant human PD-L1-His tag …; assay: Octet RED96e, PD-L1-His on HIS1K sensor
Method: as §1, §2, §3

[3] = molecular target: T2, Recombinant human PD-L2-His tag (ACROBiosystems, #PD2-H5220) (human, UniProt Q9BQ51 20-219); assay: Octet RED96e; PD-L2-His loaded at 10 µg/ml on HIS1K sensor; sample 277,8 nM
T2 construct: Bought protein; also called sPD-L2; human PD-L2-His tag protein; not shown: His tag
T2 sequence (looked up): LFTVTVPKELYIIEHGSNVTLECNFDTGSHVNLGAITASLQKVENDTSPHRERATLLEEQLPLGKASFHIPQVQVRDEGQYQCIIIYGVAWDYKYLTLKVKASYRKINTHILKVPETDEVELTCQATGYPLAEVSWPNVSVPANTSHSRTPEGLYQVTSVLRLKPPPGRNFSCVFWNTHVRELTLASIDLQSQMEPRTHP
Method: (§4) FIG. 4a is a graph of Octet binding studies on sPD-L2. Recombinant human PD-L2-His tag (ACROBiosystems, #PD2-H5220) was loaded to His-sensor (HIS1 K (Anti-Penta-His)) at 10 μg/ml and the binding of each construct was evaluated by Octet RED96e.
(§5) FIG. 4c is a graph depicting the KD values of anti-CD28/sPD-1 constructs on human PD-L2-His tag protein by Octet RED96e. The equilibrium dissociation constant (KD) is calculated as the ratio koff/kₒₙ (with koff:dissociation rates, and kₒₙ:association rates).
as §3

[4] = molecular target: T2, Recombinant human PD-L2-His tag …; assay: Octet RED96e; PD-L2-His loaded at 10 µg/ml on HIS1K sensor; sample 55,6 nM
Method: as §4, §5, §3

[5] = molecular target: T2, Recombinant human PD-L2-His tag …; assay: Octet RED96e, PD-L2-His on HIS1K sensor
Method: as §4, §5, §3

[6] = molecular target: T1, Recombinant human PD-L1-His tag …; assay: Octet RED96e; PD-L1-His loaded at 10 µg/ml on HIS1K sensor; sample 277,8 nM
Method: as §1, §2, §3

[7] = molecular target: T1, Recombinant human PD-L1-His tag …; assay: Octet RED96e; PD-L1-His loaded at 10 µg/ml on HIS1K sensor; sample 588,2 nM
Method: as §1, §2, §3

[8] = molecular target: T3, Recombinant human sCD28 Fc-fusion protein (PeproTech, #310-34) (human, UniProt P10747 19-152); assay: Octet RED96e; sCD28 Fc-fusion loaded at 2,5 µg/ml on protA sensor; sample 588,2 nM; control without CD28-binding Fab
T3 construct: Bought protein; also called soluble CD28; not shown: Fc part of the bought fusion; not described
Method: (§6) FIG. 5a is a graph of Octet binding studies on sCD28. Recombinant human sCD28 Fc-fusion protein (PeproTech, #310-34) was loaded to protA sensor at 2.5 μg/ml and the binding of each construct was evaluated by Octet RED96e.
(§7) FIG. 5c is a graph depicting the KD values of anti-CD28/sPD-1 constructs on human sCD28 Fc-fusion protein by Octet RED96e. The equilibrium dissociation constant (KD) is calculated as the ratio koff/kₒₙ (with koff:dissociation rates, and kₒₙ:association rates).
(§8) Anti-CD28/sPD-1 antibody fusion constructs were assessed for their ability to bind CD28 by Octet RED96e. Recombinant human sCD28 Fc-fusion protein (PeproTech, #310-34) was loaded to protA sensor at 2.5 μg/ml. […] FIG. 5c is a summary of affinity (measured as Kd, M) for each construct on human CD28.

[9] = molecular target: T3, Recombinant human sCD28 Fc-fusion …; assay: Octet RED96e; sCD28 Fc-fusion loaded at 2,5 µg/ml on protA sensor; sample 117,6 nM; control without CD28-binding Fab
Method: as §6, §7, §8

[10] = molecular target: T2, Recombinant human PD-L2-His tag …; assay: Octet RED96e; PD-L2-His loaded at 10 µg/ml on HIS1K sensor; sample 117,6 nM
Method: as §4, §5, §3

[11] = molecular target: T2, Recombinant human PD-L2-His tag …; assay: Octet RED96e; PD-L2-His loaded at 10 µg/ml on HIS1K sensor; sample 588,2 nM
Method: as §4, §5, §3

[12] = molecular target: T1, Recombinant human PD-L1-His tag …; assay: Octet RED96e; PD-L1-His loaded at 10 µg/ml on HIS1K sensor; sample 117,6 nM
Method: as §1, §2, §3

B1: bivalent anti-CD28/sPD-1 wt (bispecific antibody, human IgG1, kappa)
light: DIELTQSPASLAVSLGQRATISCRASESVEYYVTSLMQWYQQKPGQPPKLLIFAASNVESGVPARFSGSGSGTNFSLNIHPVDEDDVAMYFCQQSRKVPYTFGGGTKLEIKRTVAAPSVFIFPPSDEQLKSGTASVVCLLNNFYPREAKVQWKVDNALQSGNSQESVTEQDSKDSTYSLSSTLTLSKADYEKHKVYACEVTHQGLSSPVTKSFNRGEC
heavy: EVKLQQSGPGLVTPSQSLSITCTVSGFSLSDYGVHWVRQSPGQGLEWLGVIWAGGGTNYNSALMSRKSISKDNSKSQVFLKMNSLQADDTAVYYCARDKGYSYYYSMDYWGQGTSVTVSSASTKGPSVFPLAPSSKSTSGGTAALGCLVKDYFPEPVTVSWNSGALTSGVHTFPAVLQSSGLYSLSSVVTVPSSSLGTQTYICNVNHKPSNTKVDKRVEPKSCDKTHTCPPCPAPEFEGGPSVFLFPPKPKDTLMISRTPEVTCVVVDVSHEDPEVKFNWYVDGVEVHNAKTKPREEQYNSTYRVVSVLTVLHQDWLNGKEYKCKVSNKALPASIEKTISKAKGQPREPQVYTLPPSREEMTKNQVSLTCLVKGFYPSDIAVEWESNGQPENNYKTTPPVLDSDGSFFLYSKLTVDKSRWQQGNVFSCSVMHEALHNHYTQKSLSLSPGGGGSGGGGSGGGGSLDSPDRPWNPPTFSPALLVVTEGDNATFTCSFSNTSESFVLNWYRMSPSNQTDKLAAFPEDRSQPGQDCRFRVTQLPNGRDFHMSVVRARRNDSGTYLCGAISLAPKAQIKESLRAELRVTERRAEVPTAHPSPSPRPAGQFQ
notes: Two Fabs of clone 9.3 against CD28, two wild-type sPD-1 fragments; also called Bivalent anti-CD28/sPD-1 Wild type structure; bispecific protein complex A:B-C-X:D-C'-Y
With B1 the Kd [1] was 21.7 nM, the koff [1] was 0.0133 s⁻¹ and the kon [1] was 614000 M⁻¹ s⁻¹. For the same binder, the Kd [2] was ~10 nM, the Kd [3] was 18.1 nM and the koff [3] was 0.00314 s⁻¹. The kon [3] was 174000 M⁻¹ s⁻¹, the Kd [4] was 7.73 nM and the koff [4] was 0.00268 s⁻¹. It also gave a kon [4] of 347000 M⁻¹ s⁻¹, a Kd [5] of ~10 nM and a Kd [6] of 37.5 nM. It also gave a koff [6] of 0.0159 s⁻¹ and a kon [6] of 423000 M⁻¹ s⁻¹.

B2: nonvalent (or dummy) Fc/sPD-1 mut (Fc fusion)
chain: DKTHTCPPCPAPEFEGGPSVFLFPPKPKDTLMISRTPEVTCVVVDVSHEDPEVKFNWYVDGVEVHNAKTKPREEQYNSTYRVVSVLTVLHQDWLNGKEYKCKVSNKALPASIEKTISKAKGQPREPQVYTLPPSREEMTKNQVSLTCLVKGFYPSDIAVEWESNGQPENNYKTTPPVLDSDGSFFLYSKLTVDKSRWQQGNVFSCSVMHEALHNHYTQKSLSLSPGGGGSGGGGSGGGGSLDSPDRPWNPPTFSPALLVVTEGDNATFTCSFSNTSESFVLNWYRMSPSNQTDKLAAFPEDRSQPGQDCRFRVTQLPNGRDFHMSVVRARRNDSGTYLCSAISLAPYIQIKESLRAELRVTERRAEVPTAHPSPSPRPAGQFQ
notes: also called Fc/sPD-1 mutated; Fc/sPD-1 mutant construct
In the case of B2, the Kd [7] is reported as 0.00629 nM, the koff [7] is reported as 6.93e-07 s⁻¹ and the kon [7] is reported as 110000 M⁻¹ s⁻¹. It also gave a Kd [8] of 17.8 nM, a koff [8] of 0.000107 s⁻¹ and a kon [8] of 6000 M⁻¹ s⁻¹. For the same binder, the Kd [9] was 2950 nM, the koff [9] was 0.00204 s⁻¹ and the kon [9] was 692 M⁻¹ s⁻¹. The Kd [10] was 1.56 nM, the koff [10] was 0.000461 s⁻¹ and the kon [10] was 295000 M⁻¹ s⁻¹. It also gave a Kd [11] of 0.0118 nM, a koff [11] of 5.99e-07 s⁻¹ and a kon [11] of 50700 M⁻¹ s⁻¹. The Kd [12] was 2.24 nM, the koff [12] was 0.00132 s⁻¹ and the kon [12] was 588000 M⁻¹ s⁻¹.

Source: patent US20250197499A1 (STEALTH IO, published 2025)
